Experimental data as given in patent US20260000736A1, “PURIFIED LACTOFERRIN COMPOSITIONS AND METHODS OF USE” (Lactea Therapeutics LLC, priority 2023, published 2026).

Experiments:
[1] = tested on: ECM of primary buccal cells; assay: ECM association by immunofluorescence in primary buccal cells; assay type: cell-based; details: 100 µg/mL for 1 hr at 37 C
Protocol: Primary buccal cells were next cultured according to a standard protocol (e.g., see Russo et al. Cytotechnology. 2016 October; 68(5): 2105-2114; herein incorporated by reference for all purposes). […] Immunofluorescence imaging was performed as previously described.

[2] = Differential Scanning Calorimetry (DSC) of apolactoferrin and hololactoferrin forms; assay type: physicochemical
Protocol: Di[…] Calorimetry (DSC) was used to assess the hololactoferrin and apolactoferrin forms through monitoring unfolding temperatures of lactoferrin samples using a nanoDSC (TA Instruments, Lindon, UT) according to standard DSC protocols known to those of skill in the art (e.g., see Hinz et al “M[…] […] OF […] ON […] DI[…] CALORIMETRY”; herein incorporated by reference for all purposes.
API-E2 Lactoferrin (10 mg/mL), produced as described herein, was assessed by DSC. […] The lack of other peaks indicates the lack of contaminants and impurities and can assess API-E2 as ˜100%. […] Additionally, the lack of other peaks also indicated the purity of API-E2 Lactoferrin. […] The API-E2 hololactoferrin peak has a Tm of 88.38+/−0.8 C and a delta H of 632.7+/−7.2 kJ/mol. The hololactoferrin natively accounted for on average 8.74+/−1.39% of the total API-E2 lactoferrin with apolactoferrin accounting for the rest in the samples tested. However, the hololactoferrin percentage can be naturally variable. The API-E2 was calculated by this technique to contain virtually 100% pure lactoferrin.
The assay was also performed with heat-treated API-E2 Lactoferrin. API-E2 Lactoferrin was heated across a range of 50-100° C.
Lab-grade standard lactoferrin and a commercially available supplement-grade lactoferrin were also assessed by DSC under the conditions used to assess API-E2 above.

B1: Lab-grade standard lactoferrin: commercially available lab-grade standard lactoferrin (protein, UniProt P24627 20-708, looked up)
Lactotransferrin: APRKNVRWCTISQPEWFKCRRWQWRMKKLGAPSITCVRRAFALECIRAIAEKKADAVTLDGGMVFEAGRDPYKLRPVAAEIYGTKESPQTHYYAVAVVKKGSNFQLDQLQGRKSCHTGLGRSAGWIIPMGILRPYLSWTESLEPLQGAVAKFFSASCVPCIDRQAYPNLCQLCKGEGENQCACSSREPYFGYSGAFKCLQDGAGDVAFVKETTVFENLPEKADRDQYELLCLNNSRAPVDAFKECHLAQVPSHAVVARSVDGKEDLIWKLLSKAQEKFGKNKSRSFQLFGSPPGQRDLLFKDSALGFLRIPSKVDSALYLGSRYLTTLKNLRETAEEVKARYTRVVWCAVGPEEQKKCQQWSQQSGQNVTCATASTTDDCIVLVLKGEADALNLDGGYIYTAGKCGLVPVLAENRKSSKHSSLDCVLRPTEGYLAVAVVKKANEGLTWNSLKDKKSCHTAVDRTAGWNIPMGLIVNQTGSCAFDEFFSQSCAPGADPKSRLCALCAGDDQGLDKCVPNSKEKYYGYTGAFRCLAEDVGDVAFVKNDTVWENTNGESTADWAKNLNREDFRLLCLDGTRKPVTEAQSCHLAVAPNHAVVSRSDRAAHVKQVLLHQQALFGKNGKNCPDKFCLFKSETKNLLFNDNTECLAKLGGRPTYEEYLGTEYVTAIANLKKCSTSPLLEACAFLTR
For B1, the “ECM association of Lactoferrin (immunofluorescence imaging)” value [1] was “only limited ECM association”, the “Tm, Apolactoferrin peak” value ([2]; 10 mg/mL) was 55 C and the “Tm, Hololactoferrin peak” value ([2]; 10 mg/mL) was 85 C. The “estimated ratio of the apolactoferrin to hololactoferrin peak” value ([2]; conditions as for API-E2) was “nearly equal”.

B2: heat-treated API-E2 Lactoferrin: API-E2 Lactoferrin heated across a range of 50-100° C. (protein, UniProt P24627 20-708, looked up)
Lactotransferrin: APRKNVRWCTISQPEWFKCRRWQWRMKKLGAPSITCVRRAFALECIRAIAEKKADAVTLDGGMVFEAGRDPYKLRPVAAEIYGTKESPQTHYYAVAVVKKGSNFQLDQLQGRKSCHTGLGRSAGWIIPMGILRPYLSWTESLEPLQGAVAKFFSASCVPCIDRQAYPNLCQLCKGEGENQCACSSREPYFGYSGAFKCLQDGAGDVAFVKETTVFENLPEKADRDQYELLCLNNSRAPVDAFKECHLAQVPSHAVVARSVDGKEDLIWKLLSKAQEKFGKNKSRSFQLFGSPPGQRDLLFKDSALGFLRIPSKVDSALYLGSRYLTTLKNLRETAEEVKARYTRVVWCAVGPEEQKKCQQWSQQSGQNVTCATASTTDDCIVLVLKGEADALNLDGGYIYTAGKCGLVPVLAENRKSSKHSSLDCVLRPTEGYLAVAVVKKANEGLTWNSLKDKKSCHTAVDRTAGWNIPMGLIVNQTGSCAFDEFFSQSCAPGADPKSRLCALCAGDDQGLDKCVPNSKEKYYGYTGAFRCLAEDVGDVAFVKNDTVWENTNGESTADWAKNLNREDFRLLCLDGTRKPVTEAQSCHLAVAPNHAVVSRSDRAAHVKQVLLHQQALFGKNGKNCPDKFCLFKSETKNLLFNDNTECLAKLGGRPTYEEYLGTEYVTAIANLKKCSTSPLLEACAFLTR
modifications: heat-treated
With B2 the “detectable apolactoferrin and hololactoferrin DSC peaks” value ([2]; conditions as for API-E2) was “loss in both detectable peaks”.
